Experimental data taken from patent publication US10028997B2, “Systems and methods for attracting and trapping brain cancer cells” (GEISINGER HEALTH SYSTEM, priority 2014, dated 2018).

Columns and labels:
Format in all cases: cell-based
[1] = test system: human glioblastoma stem cells (hGSCs); assay: XCELLIGENCE RTCA CIM-16 (Boyden chamber) migration of hGSCs, Lcn2 in lower chamber
Description: Human glioblastoma stem cells (hGSCs) were seeded in an XCELLIGENCE RTCA CIM-16 plate, which functions as a Boyden chamber, in serum-free media. The XCELLIGENCE system (ACEA BIOSCIENCES, INC.) measures total surface area covered by cell membrane by detecting the electrical impedance, using microelectronic biosensor technology (Ness et al., NATURE COMMUNICATIONS 4:1912 (2013)). The lower chamber was supplemented with 10 μg/ml Lcn2 or 10% serum. Cell migration from the upper to the lower chamber was measured and plotted over time and the migration slope was calculated using RTCA DP software (ACEA BIOSCIENCES, INC.). The experiment was repeated four times and the results are presented as average+/−standard deviation.

[2] = test system: human glioblastoma stem cells (hGSCs); assay: Boyden chamber migration, crystal violet staining and microscope cell count; conditions: for hGSC migration (cells counted in bottom chamber): 10 μg/ml in bottom chamber, 16 hours, serum free medium, p<0.0001, FIGS. 3B and 3C
Description: Finally, human glioblastoma cell migration was also observed under the microscope. hGSCs were seeded in the upper Boyden chamber in serum free medium. Lcn2 was added to the bottom chamber at 10 μg/ml and cells were allowed to migrate for 16 hours. The bottom chamber was fixed and stained with crystal violet and cells were counted using a Zeiss Phase Contrast microscope at 10× magnification. […] To show the specificity of the Lcn2 chemotactic effect and to determine if the effect of Lcn2 on migration is […], Lcn2 was denatured by boiling in SDS buffer for 10 minutes and then added to the bottom Boyden chamber.

[3] = test system: human glioblastoma cells; assay: XCELLIGENCE migration after Lcn2 pre-treatment of glioblastoma cells; conditions: pre-treated with 10 μg/ml Lcn2 for 24 hours; p<0.0001; FIGS. 2B and 2C
Description: To further determine the effect of Lcn2 on glioblastoma cell migration, glioblastoma cells were first pre-treated with 10 μg/ml Lcn2 for 24 hours. Migration was subsequently quantified using the XCELLIGENCE system in the presence or absence of Lcn2 as a chemo-attractant in the lower Boyden chamber.

[4] = test system: human glioblastoma stem cells (hGSCs); assay: Chemotaxis assay plate, linear Lcn2 gradient; conditions: linear gradient of 10 μg/ml Lcn2 for 8 hours, FIGS. 4A-C

B1: lipocalin-2 (protein, listed as Homo sapiens)
chain: MPLGLLWLGLALLGALHAQAQDSTSDLIPAPPLSKVPLQQNFQDNQFQGKWYVVGLAGNAILREDKDPQKMYATIYELKEDKSYNVTSVLFRKKKCDYWIRTFVPGCQPGEFTLGNIKSYPGLTSYLVRVVSTNYNQHAMVFFKKVSQNREYFKITLYGRTKELTSELKENFIRFSKSLGLPENHIVFPVPIDQCIDG
notes: member of the lipocalin family, a 23 kDa hydrophilic protein
- migration of hGSCs from upper to lower chamber ([1]; 10 μg/ml Lcn2 in lower chamber vs 10% serum, serum-free media, FIG. 2A): increases the migration of hGSCs as compared to serum alone
- attraction of hGSCs toward the bottom chamber containing the Lcn2 depot ([1]; 10 μg/ml Lcn2 in lower chamber, FIG. 3A): significantly attracts hGSCs toward the bottom chamber
- hGSC migration (cells counted in bottom chamber) [2]: a significant increase in hGSC migration was observed
- rate of migration of hGSCs, lipocalin-2 in one chamber versus PBS in one chamber or lipocalin-2 in both chambers ([2]; FIGS. 3B, 3C): increases the rate of migration of human glioblastoma stem cells (hGSCs) to the lipocalin-2-containing chamber
- migration after pre-treatment with Lcn2 [3]: induced a significant increase in migration
- migration towards the opposite direction (chemokinesis) [4]: no difference in migration towards the opposite direction
- migration toward the linear Lcn2 gradient (chemotaxis) ([4]; p<0.005): increased migration toward the linear Lcn2 gradient

B2: denatured Lcn2: Lcn2 denatured by boiling in SDS buffer for 10 minutes (protein)
chain: QDSTSDLIPAPPLSKVPLQQNFQDNQFQGKWYVVGLAGNAILREDKDPQKMYATIYELKEDKSYNVTSVLFRKKKCDYWIRTFVPGCQPGEFTLGNIKSYPGLTSYLVRVVSTNYNQHAMVFFKKVSQNREYFKITLYGRTKELTSELKENFIRFSKSLGLPENHIVFPVPIDQCIDG
- hGSC migration (cells counted in bottom chamber) [2]: No effect on hGSC migration was observed
